Data from patent US11278600B2, “Human alpha-galactosidase variants” (Codexis, Inc., priority 2014, dated 2022).
Where a chain is given by its changes, count along the chain named.

B1: 34 (protein)
chain: LDNGLARTPTMGWLHWERFMCNLDCQEEPDSCISEKLFMEMAELMVSEGWKDAGYEYLCIDDCWMAPQRDSEGRLQADPQRFPHGIRQLANYVHSKGLKLGIYADVGNKTCAGFPGSFGYYDIDAQTFADWGVDLLKFDGCYCDSLENLADGYKHMSLALNRTGRSIVYSCEWPLYMWPFQKPNYTEIRQYCNHWRNFADIDDSWKSIKSILDWTSFNQERIVDVAGPGGWNDPDMLVIGNFGLSWNQQVTQMALWAIMAAPLFMSNDLRHISPQAKALLQDKDVIAINQDPLGKQGYQLRQGDNFEVWERPLSGLAWAVAMINRQEIGGPRSYTIPVASLGKGVACNPACFITQLLPVKRKLGFYEWTSRLRSHINPTGTVLLQLENTMQMSKDLLL
modifications: Synthetic Polypeptide sequence of Variant No. 34 of mature Human GLA
B2: 113 (protein)
chain: B1 chain with P337A, L397Q
modifications: Synthetic Polypeptide sequence of Variant No. 113 of mature Human GLA
B3: 114 (protein)
chain: B1 chain with P337A, L397R
modifications: Synthetic Polypeptide sequence of Variant No. 114 of mature Human GLA
B4: 115 (protein)
chain: B1 chain with P337A, L397T
modifications: Synthetic Polypeptide sequence of Variant No. 115 of mature Human GLA
B5: 116 (protein)
chain: B1 chain with P337A, L398E
modifications: Synthetic Polypeptide sequence of Variant No. 116 of mature Human GLA
B6: 117 (protein)
chain: B1 chain with P337A, L398G
modifications: Synthetic Polypeptide sequence of Variant No. 117 of mature Human GLA
B7: 118 (protein)
chain: B1 chain with P337A, L398N
modifications: Synthetic Polypeptide sequence of Variant No. 118 of mature Human GLA
B8: 119 (protein)
chain: B1 chain with P337A, L398Q
modifications: Synthetic Polypeptide sequence of Variant No. 119 of mature Human GLA
B9: 120 (protein)
chain: B1 chain with P337A, L398R
modifications: Synthetic Polypeptide sequence of Variant No. 120 of mature Human GLA
B10: 121 (protein)
chain: B1 chain with L44R, P337A, L384F
modifications: Synthetic Polypeptide sequence of Variant No. 121 of mature Human GLA
B11: 122 (protein)
chain: B1 chain with L44T, P337A
modifications: Synthetic Polypeptide sequence of Variant No. 122 of mature Human GLA
B12: 35 (protein)
chain: B1 chain with P337A, A339S
modifications: Synthetic Polypeptide sequence of Variant No. 35 of mature Human GLA
B13: 194 (protein)
chain: B1 chain with K206R, P337A
modifications: Synthetic Polypeptide sequence of Variant No. 194 of mature Human GLA
B14: 195 (protein)
chain: B1 chain with K206S, P337A
modifications: Synthetic Polypeptide sequence of Variant No. 195 of mature Human GLA
B15: 196 (protein)
chain: B1 chain with K206A, P337A, A350G
modifications: Synthetic Polypeptide sequence of Variant No. 196 of mature Human GLA

Assay: HTP-analysis of supernatants pretreated with base (MUGal hydrolysis)
Format: biochemical
Conditions: challenge at pH 7.1; activity of the variant/activity of WT GLA (SEQ ID NO: 5); yeast supernatant
How it was run: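 GLA variants were secreted by transformed INVSc1 yeast grown 66-84 h at 30° C. Supernatants were exposed to neutral-to-basic buffers (pH 7.0-9.7) at 37° C for 1-18 h, then assayed with MUGal in acidic citrate/McIlvaine buffer, with fluorescence read after quenching.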

| Molecule | Relative Activity of GLA Variants After Challenge at pH 7.1 |
| --- | --- |
| B1 | ++ (++ = >1.5 to 2.5 relative activity over WT GLA (SEQ ID NO: 5)) |
| B2 | +++ (+++ = >2.5 relative activity over WT GLA (SEQ ID NO: 5)) |
| B3 | ++ (++ = >1.5 to 2.5 relative activity over WT GLA (SEQ ID NO: 5)) |
| B4 | +++ (+++ = >2.5 relative activity over WT GLA (SEQ ID NO: 5)) |
| B5 | ++ (++ = >1.5 to 2.5 relative activity over WT GLA (SEQ ID NO: 5)) |
| B6 | ++ (++ = >1.5 to 2.5 relative activity over WT GLA (SEQ ID NO: 5)) |
| B7 | ++ (++ = >1.5 to 2.5 relative activity over WT GLA (SEQ ID NO: 5)) |
| B8 | ++ (++ = >1.5 to 2.5 relative activity over WT GLA (SEQ ID NO: 5)) |
| B9 | ++ (++ = >1.5 to 2.5 relative activity over WT GLA (SEQ ID NO: 5)) |
| B10 | ++ (++ = >1.5 to 2.5 relative activity over WT GLA (SEQ ID NO: 5)) |
| B11 | ++ (++ = >1.5 to 2.5 relative activity over WT GLA (SEQ ID NO: 5)) |
| B12 | ++ (++ = >1.5 to 2.5 relative activity over WT GLA (SEQ ID NO: 5)) |

Same assay, conditions: challenge at pH 7.6; activity of the variant/activity of Rd2BB (SEQ ID NO: 10); yeast supernatant

| Molecule | Relative Activity of GLA Variants After Challenge at pH 7.6 |
| --- | --- |
| B13 | ++ (++ = 1.5 to 2.5 relative activity over Rd2BB (SEQ ID NO: 10)) |
| B14 | + (+ = 0.5 to 1.5 relative activity over Rd2BB (SEQ ID NO: 10)) |
| B15 | + (+ = 0.5 to 1.5 relative activity over Rd2BB (SEQ ID NO: 10)) |

Assay: HTP-analysis of supernatants pretreated with acid (MUGal hydrolysis)
Format: biochemical
Conditions: challenge at pH 4.2; activity of the variant/activity of Rd2BB (SEQ ID NO: 10); yeast supernatant
How it was run: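 Supernatants from INVSc1 yeast secreting GLA variants were challenged at 37° C. for 1-3 h in McIlvaine buffer at pH 3.3-4.3. Residual activity was then measured on 4 mM MUGal substrate stock at pH 4.8 with citrate buffer pH 4.3, over 30-180 min at 37° C. Reactions were quenched with sodium carbonate and read by fluorescence (Ex 355/Em 448 nm).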

| Molecule | Relative Activity of GLA Variants After Challenge at pH 4.2 |
| --- | --- |
| B13 | ++ (++ = 1.5 to 2.5 relative activity over Rd2BB (SEQ ID NO: 10)) |
| B14 | + (+ = 0.5 to 1.5 relative activity over Rd2BB (SEQ ID NO: 10)) |
| B15 | + (+ = 0.5 to 1.5 relative activity over Rd2BB (SEQ ID NO: 10)) |

Same assay, conditions: challenge at pH 4.2; activity of the variant/activity of WT GLA (SEQ ID NO: 5); yeast supernatant

| Molecule | Relative Activity of GLA Variants After Challenge at pH 4.2 |
| --- | --- |
| B1 | ++ (++ = >1.5 to 2.5 relative activity over WT GLA (SEQ ID NO: 5)) |
| B2 | + (+ = 0.5 to 1.5 relative activity over WT GLA (SEQ ID NO: 5)) |
| B3 | ++ (++ = >1.5 to 2.5 relative activity over WT GLA (SEQ ID NO: 5)) |
| B4 | ++ (++ = >1.5 to 2.5 relative activity over WT GLA (SEQ ID NO: 5)) |
| B5 | ++ (++ = >1.5 to 2.5 relative activity over WT GLA (SEQ ID NO: 5)) |
| B6 | ++ (++ = >1.5 to 2.5 relative activity over WT GLA (SEQ ID NO: 5)) |
| B7 | ++ (++ = >1.5 to 2.5 relative activity over WT GLA (SEQ ID NO: 5)) |
| B8 | ++ (++ = >1.5 to 2.5 relative activity over WT GLA (SEQ ID NO: 5)) |
| B9 | ++ (++ = >1.5 to 2.5 relative activity over WT GLA (SEQ ID NO: 5)) |
| B10 | ++ (++ = >1.5 to 2.5 relative activity over WT GLA (SEQ ID NO: 5)) |
| B11 | ++ (++ = >1.5 to 2.5 relative activity over WT GLA (SEQ ID NO: 5)) |
| B12 | ++ (++ = >1.5 to 2.5 relative activity over WT GLA (SEQ ID NO: 5)) |

Assay: HTP-analysis of yeast culture supernatants, no challenge (MUGal hydrolysis)
Format: biochemical
Conditions: activity of the variant/activity of Rd2BB (SEQ ID NO: 10), yeast supernatant
How it was run: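 GLA variants were expressed in INVSc1 yeast grown in SD-Ura broth with glucose at 30° C., and culture supernatants were collected after 66-84 h. Supernatant was mixed with McIlvaine buffer pH 4.8 and MUGal (2 mM stock) in 50 mM citrate, 200 mM KCl, pH 4.6, incubated at 37° C. for 30-180 minutes, then quenched with sodium carbonate.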

| Molecule | Relative Activity of GLA Variants After No Challenge (NC) |
| --- | --- |
| B13 | ++ (++ = 1.5 to 2.5 relative activity over Rd2BB (SEQ ID NO: 10)) |
| B14 | + (+ = 0.5 to 1.5 relative activity over Rd2BB (SEQ ID NO: 10)) |
| B15 | + (+ = 0.5 to 1.5 relative activity over Rd2BB (SEQ ID NO: 10)) |

Same assay, conditions: activity of the variant/activity of WT GLA (SEQ ID NO: 5), yeast supernatant

| Molecule | Relative Activity of GLA Variants After No Challenge (NC) |
| --- | --- |
| B1 | + (+ = 0.5 to 1.5 relative activity over WT GLA (SEQ ID NO: 5)) |
| B2 | ++ (++ = >1.5 to 2.5 relative activity over WT GLA (SEQ ID NO: 5)) |
| B3 | ++ (++ = >1.5 to 2.5 relative activity over WT GLA (SEQ ID NO: 5)) |
| B4 | ++ (++ = >1.5 to 2.5 relative activity over WT GLA (SEQ ID NO: 5)) |
| B5 | ++ (++ = >1.5 to 2.5 relative activity over WT GLA (SEQ ID NO: 5)) |
| B6 | ++ (++ = >1.5 to 2.5 relative activity over WT GLA (SEQ ID NO: 5)) |
| B7 | ++ (++ = >1.5 to 2.5 relative activity over WT GLA (SEQ ID NO: 5)) |
| B8 | ++ (++ = >1.5 to 2.5 relative activity over WT GLA (SEQ ID NO: 5)) |
| B9 | ++ (++ = >1.5 to 2.5 relative activity over WT GLA (SEQ ID NO: 5)) |
| B10 | + (+ = 0.5 to 1.5 relative activity over WT GLA (SEQ ID NO: 5)) |
| B11 | ++ (++ = >1.5 to 2.5 relative activity over WT GLA (SEQ ID NO: 5)) |
| B12 | ++ (++ = >1.5 to 2.5 relative activity over WT GLA (SEQ ID NO: 5)) |
